In this test the target is Bcl-2 (UniProt P10415). Put plainly: anti-HA IP, Bcl-2 blot. Conditions: reference: HA-Beclin-1 wild type; sites T119.

Consider “Beclin-1 (from UniProt Q14457) HA-Beclin-1 T119A”, for which the “binding against the reference” value is listed as “stronger”.
